Measurements published in patent US20260242483A1.

What was measured:
[1] = target: human BTN3A as expressed on human cells (PBMC, Daudi, tumour cell lines, HUVEC, HEK293T WT) (human); test: cell-based or functional assay
[2] = target: human BTN3A as expressed on human cells (PBMC, Daudi, tumour cell lines, HUVEC, HEK293T WT) (human); test: flow cytometry on human PBMCs
[3] = target: cynomolgus BTN3A as expressed on cynomolgus PBMCs (cynomolgus monkey (Macaca fascicularis)); test: flow cytometry on cynomolgus PBMCs
[4] = target: human BTN3A as expressed on human cells (PBMC, Daudi, tumour cell lines, HUVEC, HEK293T WT) (human); test: flow cytometry on Daudi lymphoma cells

B1: Chimeric 7.2 (VH0/Vκ0) (antibody, V domains shown)
VH: QVQLQQSGAELVKPGASVKLSCKASGYIFTRYYMYWVKQRPGQGLEWIGEINPNNGGTKFNEKFKNKATLTVDKFSSTAYMQLRSLTSEDSAVYYCSREDDYDGTPFAMDYWGQGTSVTVSS
VL: DIQMNQSPSSLSASLGDTITITCHASQNINVWLSWYQQKPGNIPKLLIYKASNLHTGVPSRFTGSGSGTGFTLTISSLQPEDIATYYCQQGQTYPYTFGGGTKLEIK
[1]
  Functional assay (AML resistant) (γδT cell-based, EC50, µg/mL): 0.42 µg/mL
  Functional assay (AML sensitive) (γδT cell-based, EC50, µg/mL): 0.12 µg/mL
  Functional assay (Daudi) (γδT cell-based, EC50, µg/mL): 0.02 µg/mL
[2]
  EC50: 3.6 µg/mL
[3]
  EC50: 7.75 µg/mL
[4]
  EC50: 1.44 µg/mL
